Columns and labels:
[1] = biological target: HIV-1JR-FL envelope glycoprotein gp120/gp41 on HeLa-EnvJR-FL+ cells (HIV-1 JR-FL); experiment: cell-based or functional assay
[2] = biological target: CCR5 chemokine receptor on the cell surface (UniProt P51681)
[3] = biological target: CCR5 chemokine receptor on the cell surface (UniProt P51681); experiment: cell-based or functional assay
[4] = biological target: CCR5 chemokine receptor on the cell surface (UniProt P51681); experiment: flow cytometry on PHA/IL-2-stimulated PBMC
[5] = biological target: CCR5 chemokine receptor on the cell surface (UniProt P51681); experiment: flow cytometry on L1.2-CCR5+ cells, PE anti-mouse IgG

Chain of UniProt P51681 (P51681 whole entry): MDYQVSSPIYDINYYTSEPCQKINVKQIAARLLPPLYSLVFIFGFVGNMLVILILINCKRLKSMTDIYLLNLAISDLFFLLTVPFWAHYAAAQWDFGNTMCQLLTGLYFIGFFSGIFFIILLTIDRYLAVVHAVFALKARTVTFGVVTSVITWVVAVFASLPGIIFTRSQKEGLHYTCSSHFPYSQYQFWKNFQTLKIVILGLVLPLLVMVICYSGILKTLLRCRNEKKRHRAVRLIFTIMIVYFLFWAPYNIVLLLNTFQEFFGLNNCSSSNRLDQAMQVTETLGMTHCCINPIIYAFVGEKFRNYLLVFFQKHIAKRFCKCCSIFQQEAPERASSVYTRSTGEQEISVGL

Substance	K (= IC50) of the median effect fit, inhibition of env-mediated membrane fusion (RET assay) [1] [µg/mL]	IC50 [2] [µg/mL]	IC50, inhibition of JR-FL entry (luciferase reporter virus, U87MG-CD4+CCR5+ cells) [3] [µg/mL]	IC50, inhibition of cell-cell fusion (RET assay, PM1 and HeLa-EnvJR-FL+ cells) [3] [µg/mL]	K (= IC50) of the median effect fit, inhibition of cell-cell fusion (RET assay) [3] [µg/mL]	% of cells stained [4]	% of cells stained (% of L1.2-CCR5+ cells) [5]	IC50, inhibition of RANTES-induced calcium influx in L1.2-CCR5+ cells [3] [µg/mL]	IC50 of calcium influx inhibition, PA14 against 2D7 [3] [fold]	fold difference of m.f.i. against PA9 [4] [fold]
CD4-IgG2 (from UniProt P01730 26-204; P01730 26-204) (Fc fusion)	0.31									
T-20 peptide	0.017									
anti-CCR5 mAb 2D7 (antibody)		1.38	0.026	1.6	0.36	> 20 % of PBMC	> 90			
anti-CCR5 monoclonal antibody PA14 (ATCC No. HB-12610)		1.58	0.024	1.7		> 20 % of PBMC	> 90	50	8	7

— patent US7037497
